Test results published in article doi:10.1101/379156, “Probing the Modularity of Megasynthases by Rational Engineering of a Fatty Acid Synthase (FAS) Type I” (bioRxiv, 2018).

Target: the molecule itself
Experiment: SEC; as a1, but samples not incubated at 37 °C before the SEC run; monomer to dimer

Protein | stoichiometry N
mFAS gamma-module, construct 7 (2-1517+1870-2195) (domain or fragment, Mus musculus, UniProt P19096 2-2195, looked up, murine fatty acid synthase 2-2195 with the ER domain deleted (P1517 bridged to S1870); Made from construct 6 as template; also called γ-module) EEVVIAGMSGKLPESENLQEFWANLIGGVDMVTDDDRRWKAGLYGLPKRSGKLKDLSKFDASFFGVHPKQAHTMDPQLRLLLEVSYEAIVDGGINPASLRGTNTGVWVGVSGSEASEALSRDPETLLGYSMVGCQRAMMANRLSFFFDFKGPSIALDTACSSSLLALQNAYQAIRSGECPAALVGGINLLLKPNTSVQFMKLGMLSPDGTCRSFDDSGSGYCRSEAVVAVLLTKKSLARRVYATILNAGTNTDGSKEQGVTFPSGEVQEQLICSLYQPAGLAPESLEYIEAHGTGTKVGDPQELNGITRSLCAFRQAPLLIGSTKSNMGHPEPASGLAALTKVLLSLEHGVWAPNLHFHNPNPEIPALLDGRLQVVDRPLPVRGGNVGINSFGFGGSNVHVILQPNTRQAPAPTAHAALPHLLHASGRTLEAVQDLLEQGRQHSQDLAFVSMLNDIAATPTAAMPFRGYTVLGVEGRVQEVQQVSTNKRPLWFICSGMGTQWRGMGLSLMRLDSFRESILRSDEAVKPLGVKVSDLLLSTDERTFDDIVHAFVSLTAIQIALIDLLTSVGLKPDGIIGHSLGEVACGYADGCLSQREAVLAAYWRGQCIKDAHLPPGSMAAVGLSWEECKQRCPAGVVPACHNSEDTVTISGPQAAVNEFVEQLKQEGVFAKEVRTGGLAFHSYFMEGIAPTLLQALKKVIREPRPRSARWLSTSIPEAQWQSSLARTSSAEYNVNNLVSPVLFQEALWHIPEHAVVLEIAPHALLQAVLKRGVKSSCTIIPLMKRDHKDNLEFFLTNLGKVHLTGINVNPNALFPPVEFPAPRGTPLISPHIKWDHSQTWDVPVAEDFPNGSSSSSATVYSIDASPESPDHYLVDHCIDGRVIFPGTGYLCLVWKTLARSLGLSLEETPVVFENVSFHQATILPKTGTVALEVRLLEASHAFEVSDTGNLIVSGKVYLWEDPNSKLFDHPEVPTPPESASVSRLTQGEVYKELRLRGYDYGPQFQGICEATLEGEQGKLLWKDNWVTFMDTMLQVSILGSSQQSLQLPTRVTAIYIDPATHRQKVYRLKEDTQVADVTTSRCLGITVSGGIHISRLQTTATSRRQQEQLVPTLEKFVFTPHMEAECLSESTALQKELQLCKGLARALQTKATQQGLKAAMLGQEDPPQHGLPRLLAAACQLQLNGNLQLELGEALAQERLLLPEDPLISGLLNSQALKACVDTALENLSTLKMKVAEVLAGEGHLYSRIPALLNTQPMLQLEYTATDRHPQALKDVQTKLQQHDVAQGQWNPSDPAPSSLGALDLLVCNCALATLGDPALALDNMVAALKEGGFLLVHTVLKGHALGETLACLPSEVQPAPSLLSQEEWESLFSRKALHLVGLKRSFYGTALFLCRRAIPQEKPIFLSVEDTSFQWVDSLKSTLATSSSQPVWLTAMDCPTSGVVGLVNCLRKEPGGHRIRCILLSNLSNTSHAPKLDPGSPELQQVLKHDLVMNVYRDGAWGAFRHFQLEQDKPSKTFCPAHKSYIITGGLGGFGLELARWLVLRGAQRLVLTSRSGIRTGYQAKHIREWRRQGIQVLVSTSNVSSLEGARALIAEATKLGPVGGVFNLAMVLRDAMLENQTPELFQDVNKPKYNGTLNLDRATREACPELDYFVAFSSVSCGRGNAGQTNYGFANSTMERICEQRRHDGLPGLAVQWGAIGDVGIVLEAMGTNDTVIGGTLPQRISSCMEVLDLFLNQPHAVLSSFVLAEKKAVAHGDGDTQRDLVKAVAHILGIRDLAGINLDSTLADLGLDSLMGVEVRQILEREHDLVLPMREVRQLTLRKLQEMSSKTDSATDTT | 2
mFAS beta-module, construct 8 (2-858+1104-1517+1870-2195) (domain or fragment, Mus musculus, UniProt P19096 2-2195, looked up, murine fatty acid synthase 2-2195 with the DH domain (S858 linked with S1104) and the ER domain (P1517 bridged to S1870) deleted; Made from construct 7; also called β-module) EEVVIAGMSGKLPESENLQEFWANLIGGVDMVTDDDRRWKAGLYGLPKRSGKLKDLSKFDASFFGVHPKQAHTMDPQLRLLLEVSYEAIVDGGINPASLRGTNTGVWVGVSGSEASEALSRDPETLLGYSMVGCQRAMMANRLSFFFDFKGPSIALDTACSSSLLALQNAYQAIRSGECPAALVGGINLLLKPNTSVQFMKLGMLSPDGTCRSFDDSGSGYCRSEAVVAVLLTKKSLARRVYATILNAGTNTDGSKEQGVTFPSGEVQEQLICSLYQPAGLAPESLEYIEAHGTGTKVGDPQELNGITRSLCAFRQAPLLIGSTKSNMGHPEPASGLAALTKVLLSLEHGVWAPNLHFHNPNPEIPALLDGRLQVVDRPLPVRGGNVGINSFGFGGSNVHVILQPNTRQAPAPTAHAALPHLLHASGRTLEAVQDLLEQGRQHSQDLAFVSMLNDIAATPTAAMPFRGYTVLGVEGRVQEVQQVSTNKRPLWFICSGMGTQWRGMGLSLMRLDSFRESILRSDEAVKPLGVKVSDLLLSTDERTFDDIVHAFVSLTAIQIALIDLLTSVGLKPDGIIGHSLGEVACGYADGCLSQREAVLAAYWRGQCIKDAHLPPGSMAAVGLSWEECKQRCPAGVVPACHNSEDTVTISGPQAAVNEFVEQLKQEGVFAKEVRTGGLAFHSYFMEGIAPTLLQALKKVIREPRPRSARWLSTSIPEAQWQSSLARTSSAEYNVNNLVSPVLFQEALWHIPEHAVVLEIAPHALLQAVLKRGVKSSCTIIPLMKRDHKDNLEFFLTNLGKVHLTGINVNPNALFPPVEFPAPRGTPLISPHIKWDHSQTWDVPVAEDFPNGSSSSSSRRQQEQLVPTLEKFVFTPHMEAECLSESTALQKELQLCKGLARALQTKATQQGLKAAMLGQEDPPQHGLPRLLAAACQLQLNGNLQLELGEALAQERLLLPEDPLISGLLNSQALKACVDTALENLSTLKMKVAEVLAGEGHLYSRIPALLNTQPMLQLEYTATDRHPQALKDVQTKLQQHDVAQGQWNPSDPAPSSLGALDLLVCNCALATLGDPALALDNMVAALKEGGFLLVHTVLKGHALGETLACLPSEVQPAPSLLSQEEWESLFSRKALHLVGLKRSFYGTALFLCRRAIPQEKPIFLSVEDTSFQWVDSLKSTLATSSSQPVWLTAMDCPTSGVVGLVNCLRKEPGGHRIRCILLSNLSNTSHAPKLDPGSPELQQVLKHDLVMNVYRDGAWGAFRHFQLEQDKPSKTFCPAHKSYIITGGLGGFGLELARWLVLRGAQRLVLTSRSGIRTGYQAKHIREWRRQGIQVLVSTSNVSSLEGARALIAEATKLGPVGGVFNLAMVLRDAMLENQTPELFQDVNKPKYNGTLNLDRATREACPELDYFVAFSSVSCGRGNAGQTNYGFANSTMERICEQRRHDGLPGLAVQWGAIGDVGIVLEAMGTNDTVIGGTLPQRISSCMEVLDLFLNQPHAVLSSFVLAEKKAVAHGDGDTQRDLVKAVAHILGIRDLAGINLDSTLADLGLDSLMGVEVRQILEREHDLVLPMREVRQLTLRKLQEMSSKTDSATDTT | 2
